According to patent publication US20220298218A1 (ANTAG THERAPEUTICS, published 2022):
*1 amine or outer side, *2 acyl side, *3 side chain or, on linkers, in order; H or OH if unused. Where no end group is shown, it is not given here. Side-chain parts run from the residue outwards. The star is where a group is joined. C18 diacid = O=C(O)CCCCCCCCCCCCCCCCC(=O)*; C16 diacid = O=C(O)CCCCCCCCCCCCCCC(=O)*; γGlu = O=C(O)[C@H](CCC(=O)[*:2])N[*:1]; AEEA = NCCOCCOCC(=O)O

T1: human GIP receptor (human, UniProt P48546 22-466)
T1 sequence (looked up): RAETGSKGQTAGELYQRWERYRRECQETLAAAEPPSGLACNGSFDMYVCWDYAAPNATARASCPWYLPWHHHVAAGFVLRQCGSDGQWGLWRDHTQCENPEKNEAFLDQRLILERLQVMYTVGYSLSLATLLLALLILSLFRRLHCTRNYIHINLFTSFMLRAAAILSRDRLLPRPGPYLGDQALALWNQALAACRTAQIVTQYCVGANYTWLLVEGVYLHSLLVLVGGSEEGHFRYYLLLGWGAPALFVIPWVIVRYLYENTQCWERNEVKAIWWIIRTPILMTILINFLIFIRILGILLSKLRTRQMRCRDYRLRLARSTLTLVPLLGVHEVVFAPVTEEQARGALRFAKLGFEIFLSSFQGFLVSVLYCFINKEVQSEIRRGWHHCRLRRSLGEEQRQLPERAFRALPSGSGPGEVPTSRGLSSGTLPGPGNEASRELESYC

B1: AT435 (peptide)
peptide: SGTFISDYSIAMDKIK([AEEA-AEEA-γGlu-C16 diacid])QQDFVNWLLAQKGPSSGAPPPS-OH
modifications: N-terminus assumed
SMILES: CC[C@H](C)[C@H](NC(=O)[C@H](CO)NC(=O)[C@H](Cc1ccc(O)cc1)NC(=O)[C@H](CC(=O)O)NC(=O)[C@H](CO)NC(=O)[C@@H](NC(=O)[C@H](Cc1ccccc1)NC(=O)[C@@H](NC(=O)CNC(=O)[C@@H](N)CO)[C@@H](C)O)[C@@H](C)CC)C(=O)N[C@@H](C)C(=O)N[C@@H](CCSC)C(=O)N[C@@H](CC(=O)O)C(=O)N[C@@H](CCCCN)C(=O)N[C@H](C(=O)N[C@@H](CCCCNC(=O)COCCOCCNC(=O)COCCOCCNC(=O)CC[C@H](NC(=O)CCCCCCCCCCCCCCC(=O)O)C(=O)O)C(=O)N[C@@H](CCC(N)=O)C(=O)N[C@@H](CCC(N)=O)C(=O)N[C@@H](CC(=O)O)C(=O)N[C@@H](Cc1ccccc1)C(=O)N[C@H](C(=O)N[C@@H](CC(N)=O)C(=O)N[C@@H](Cc1c[nH]c2ccccc12)C(=O)N[C@@H](CC(C)C)C(=O)N[C@@H](CC(C)C)C(=O)N[C@@H](C)C(=O)N[C@@H](CCC(N)=O)C(=O)N[C@@H](CCCCN)C(=O)NCC(=O)N1CCC[C@H]1C(=O)N[C@@H](CO)C(=O)N[C@@H](CO)C(=O)NCC(=O)N[C@@H](C)C(=O)N1CCC[C@H]1C(=O)N1CCC[C@H]1C(=O)N1CCC[C@H]1C(=O)N[C@@H](CO)C(=O)O)C(C)C)[C@@H](C)CC
B2: AT437 (peptide)
peptide: SGTFISDYSIAMDKIK([AEEA-AEEA-γGlu-C18 diacid])QQDFVNWLLAQKGPSSGAPPPS-OH
modifications: N-terminus assumed
SMILES: CC[C@H](C)[C@H](NC(=O)[C@H](CO)NC(=O)[C@H](Cc1ccc(O)cc1)NC(=O)[C@H](CC(=O)O)NC(=O)[C@H](CO)NC(=O)[C@@H](NC(=O)[C@H](Cc1ccccc1)NC(=O)[C@@H](NC(=O)CNC(=O)[C@@H](N)CO)[C@@H](C)O)[C@@H](C)CC)C(=O)N[C@@H](C)C(=O)N[C@@H](CCSC)C(=O)N[C@@H](CC(=O)O)C(=O)N[C@@H](CCCCN)C(=O)N[C@H](C(=O)N[C@@H](CCCCNC(=O)COCCOCCNC(=O)COCCOCCNC(=O)CC[C@H](NC(=O)CCCCCCCCCCCCCCCCC(=O)O)C(=O)O)C(=O)N[C@@H](CCC(N)=O)C(=O)N[C@@H](CCC(N)=O)C(=O)N[C@@H](CC(=O)O)C(=O)N[C@@H](Cc1ccccc1)C(=O)N[C@H](C(=O)N[C@@H](CC(N)=O)C(=O)N[C@@H](Cc1c[nH]c2ccccc12)C(=O)N[C@@H](CC(C)C)C(=O)N[C@@H](CC(C)C)C(=O)N[C@@H](C)C(=O)N[C@@H](CCC(N)=O)C(=O)N[C@@H](CCCCN)C(=O)NCC(=O)N1CCC[C@H]1C(=O)N[C@@H](CO)C(=O)N[C@@H](CO)C(=O)NCC(=O)N[C@@H](C)C(=O)N1CCC[C@H]1C(=O)N1CCC[C@H]1C(=O)N1CCC[C@H]1C(=O)N[C@@H](CO)C(=O)O)C(C)C)[C@@H](C)CC
B3: AT431 (peptide)
peptide: EGTFISDYSIAMDKIK([AEEA-AEEA-γGlu-C16 diacid])QQDFVNWLLAQKGPSSGAPPPS-OH
modifications: N-terminus assumed
SMILES: CC[C@H](C)[C@H](NC(=O)[C@H](CO)NC(=O)[C@H](Cc1ccc(O)cc1)NC(=O)[C@H](CC(=O)O)NC(=O)[C@H](CO)NC(=O)[C@@H](NC(=O)[C@H](Cc1ccccc1)NC(=O)[C@@H](NC(=O)CNC(=O)[C@@H](N)CCC(=O)O)[C@@H](C)O)[C@@H](C)CC)C(=O)N[C@@H](C)C(=O)N[C@@H](CCSC)C(=O)N[C@@H](CC(=O)O)C(=O)N[C@@H](CCCCN)C(=O)N[C@H](C(=O)N[C@@H](CCCCNC(=O)COCCOCCNC(=O)COCCOCCNC(=O)CC[C@H](NC(=O)CCCCCCCCCCCCCCC(=O)O)C(=O)O)C(=O)N[C@@H](CCC(N)=O)C(=O)N[C@@H](CCC(N)=O)C(=O)N[C@@H](CC(=O)O)C(=O)N[C@@H](Cc1ccccc1)C(=O)N[C@H](C(=O)N[C@@H](CC(N)=O)C(=O)N[C@@H](Cc1c[nH]c2ccccc12)C(=O)N[C@@H](CC(C)C)C(=O)N[C@@H](CC(C)C)C(=O)N[C@@H](C)C(=O)N[C@@H](CCC(N)=O)C(=O)N[C@@H](CCCCN)C(=O)NCC(=O)N1CCC[C@H]1C(=O)N[C@@H](CO)C(=O)N[C@@H](CO)C(=O)NCC(=O)N[C@@H](C)C(=O)N1CCC[C@H]1C(=O)N1CCC[C@H]1C(=O)N1CCC[C@H]1C(=O)N[C@@H](CO)C(=O)O)C(C)C)[C@@H](C)CC
B4: AT439 (peptide)
peptide: SGTFISDYSIAMDRIK([AEEA-AEEA-γGlu-C16 diacid])QQDFVNWLLAQRGPSSGAPPPS-OH
modifications: N-terminus assumed
SMILES: CC[C@H](C)[C@H](NC(=O)[C@H](CO)NC(=O)[C@H](Cc1ccc(O)cc1)NC(=O)[C@H](CC(=O)O)NC(=O)[C@H](CO)NC(=O)[C@@H](NC(=O)[C@H](Cc1ccccc1)NC(=O)[C@@H](NC(=O)CNC(=O)[C@@H](N)CO)[C@@H](C)O)[C@@H](C)CC)C(=O)N[C@@H](C)C(=O)N[C@@H](CCSC)C(=O)N[C@@H](CC(=O)O)C(=O)N[C@@H](CCCNC(=N)N)C(=O)N[C@H](C(=O)N[C@@H](CCCCNC(=O)COCCOCCNC(=O)COCCOCCNC(=O)CC[C@H](NC(=O)CCCCCCCCCCCCCCC(=O)O)C(=O)O)C(=O)N[C@@H](CCC(N)=O)C(=O)N[C@@H](CCC(N)=O)C(=O)N[C@@H](CC(=O)O)C(=O)N[C@@H](Cc1ccccc1)C(=O)N[C@H](C(=O)N[C@@H](CC(N)=O)C(=O)N[C@@H](Cc1c[nH]c2ccccc12)C(=O)N[C@@H](CC(C)C)C(=O)N[C@@H](CC(C)C)C(=O)N[C@@H](C)C(=O)N[C@@H](CCC(N)=O)C(=O)N[C@@H](CCCNC(=N)N)C(=O)NCC(=O)N1CCC[C@H]1C(=O)N[C@@H](CO)C(=O)N[C@@H](CO)C(=O)NCC(=O)N[C@@H](C)C(=O)N1CCC[C@H]1C(=O)N1CCC[C@H]1C(=O)N1CCC[C@H]1C(=O)N[C@@H](CO)C(=O)O)C(C)C)[C@@H](C)CC
B5: AT434 (peptide)
peptide: EGTFISDYSIAMDKIK([AEEA-AEEA-AEEA-γGlu-C18 diacid])QQDFVNWLLAQKGPSSGAPPPS-OH
modifications: N-terminus assumed
SMILES: CC[C@H](C)[C@H](NC(=O)[C@H](CO)NC(=O)[C@H](Cc1ccc(O)cc1)NC(=O)[C@H](CC(=O)O)NC(=O)[C@H](CO)NC(=O)[C@@H](NC(=O)[C@H](Cc1ccccc1)NC(=O)[C@@H](NC(=O)CNC(=O)[C@@H](N)CCC(=O)O)[C@@H](C)O)[C@@H](C)CC)C(=O)N[C@@H](C)C(=O)N[C@@H](CCSC)C(=O)N[C@@H](CC(=O)O)C(=O)N[C@@H](CCCCN)C(=O)N[C@H](C(=O)N[C@@H](CCCCNC(=O)COCCOCCNC(=O)COCCOCCNC(=O)COCCOCCNC(=O)CC[C@H](NC(=O)CCCCCCCCCCCCCCCCC(=O)O)C(=O)O)C(=O)N[C@@H](CCC(N)=O)C(=O)N[C@@H](CCC(N)=O)C(=O)N[C@@H](CC(=O)O)C(=O)N[C@@H](Cc1ccccc1)C(=O)N[C@H](C(=O)N[C@@H](CC(N)=O)C(=O)N[C@@H](Cc1c[nH]c2ccccc12)C(=O)N[C@@H](CC(C)C)C(=O)N[C@@H](CC(C)C)C(=O)N[C@@H](C)C(=O)N[C@@H](CCC(N)=O)C(=O)N[C@@H](CCCCN)C(=O)NCC(=O)N1CCC[C@H]1C(=O)N[C@@H](CO)C(=O)N[C@@H](CO)C(=O)NCC(=O)N[C@@H](C)C(=O)N1CCC[C@H]1C(=O)N1CCC[C@H]1C(=O)N1CCC[C@H]1C(=O)N[C@@H](CO)C(=O)O)C(C)C)[C@@H](C)CC

molecular target: T1, human GIP receptor; assay: cell-based or functional assay

Point of comparison: B5, “cAMP antagonism” value 35.5 nM. Against it:
- B1 — 2.2-fold higher, 79.4 nM
- B2 — the same, 35.5 nM
- B3 — within 1.5-fold, 34.2 nM
- EGTFISDYSIAMDKIK([AEEA-AEEA-γGlu-C18 diacid])QQDFVNWLLAQKGPSSGAPPPS [AT433] — 4.5-fold lower, 7.94 nM
- B4 — 2.4-fold lower, 14.7 nM

Point of comparison: B4, “cAMP antagonism % inhib” value 93%. Against it:
- B1 — lower, 84%
- B2 — lower, 83%
- B3 — lower, 77%
- EGTFISDYSIAMDKIK([AEEA-AEEA-γGlu-C18 diacid])QQDFVNWLLAQKGPSSGAPPPS [AT433] — lower, 89%
- B5 — higher, 95%

Point of comparison: B1, “cAMP antagonism pIC50” value 7.1. Against it:
- B2 — higher, 7.5
- B3 — higher, 7.5
- EGTFISDYSIAMDKIK([AEEA-AEEA-γGlu-C18 diacid])QQDFVNWLLAQKGPSSGAPPPS [AT433] — higher, 8.1
- B4 — higher, 7.8
- B5 — higher, 7.5

Point of comparison: EGTFISDYSIAMDKIK([AEEA-AEEA-γGlu-C18 diacid])QQDFVNWLLAQKGPSSGAPPPS [AT433], “cAMP agonism % Emax” value 0%. Against it:
- B2 — the same, 0%
- B3 — the same, 0%
- B4 — the same, 0%

molecular target: T1, human GIP receptor; assay: cell-based or functional assay; remark: another data set of the same source

Point of comparison: EGTFISDYSIAMDKIK([AEEA-AEEA-γGlu-C18 diacid])QQDFVNWLLAQKGPSSGAPPPS [AT433], “cAMP antagonism” value 62 nM. Against it:
- B1 — within 1.5-fold, 75 nM
- B2 — 7.8-fold lower, 8 nM
- B3 — 8.9-fold lower, 7 nM
- B4 — 6.9-fold lower, 9 nM
- B5 — 4.4-fold lower, 14 nM

Point of comparison: EGTFISDYSIAMDKIK([AEEA-AEEA-γGlu-C18 diacid])QQDFVNWLLAQKGPSSGAPPPS [AT433], “cAMP antagonism % inhib” value 100%. Against it:
- B1 — the same, 100%
- B2 — the same, 100%
- B3 — lower, 75%
- B4 — the same, 100%
- B5 — the same, 100%

Point of comparison: B2, cAMP antagonism log -8.1 log M. Against it:
- B1 — higher, -7.1 log M
- B3 — the same, -8.1 log M
- EGTFISDYSIAMDKIK([AEEA-AEEA-γGlu-C18 diacid])QQDFVNWLLAQKGPSSGAPPPS [AT433] — higher, -7.2 log M
- B4 — higher, -8 log M
- B5 — higher, -7.9 log M
